Paper PMC7319586

B1: Prv2827c -61 to -131 WT (IR1-IR2, TRB1106) (dsDNA)
DNA 1: CAGGGCACTTGAGTTTGGAACGGGTTTCGTACTGTCACTGACCGAAGCCCGTTCCTAAATCAAGTGATTTCAAGCTTTTGTCAGTGCGCA
DNA 2: TGCGCACTGACAAAAGCTTGAAATCACTTGATTTAGGAACGGGCTTCGGTCAGTGACAGTACGAAACCCGTTCCAAACTCAAGTGCCCTG
B2: Prv1044 -1 to -71 WT (TRB1086) (dsDNA)
DNA 1: AACTAGGCGCGCCTAGCCTGGACGAGTCCCCGGGCCGACATTCGCCCGAGGCCTTGGCCTCCATCACCTAAAAGCTTTTGTCAGTGCGCA
DNA 2: TGCGCACTGACAAAAGCTTTTAGGTGATGGAGGCCAAGGCCTCGGGCGAATGTCGGCCCGGGGACTCGTCCAGGCTAGGCGCGCCTAGTT
B3: PabiEi -1 to -71 WT (IR1-IR2, TRB1061) (dsDNA)
DNA 1: AAAAGAAAATGTTGCTTTTATACCACAAATATTGTAAAATTGTAGTGTAAAAGCAACAAGTGGGGGGCCGTAAGCTTTTGTCAGTGCGCA
DNA 2: TGCGCACTGACAAAAGCTTACGGCCCCCCACTTGTTGCTTTTACACTACAATTTTACAATATTTGTGGTATAAAAGCAACATTTTCTTTT
B4: Prv2827c -1 to -71 WT (IR3-IR4, TRB1104) (dsDNA)
DNA 1: CAAGTGATTTCTTGAGTTTGAACATTGTTGCGTACAGATATAGTATAGTTTCCGGTGTGAATTCAAGTTCGAAGCTTTTGTCAGTGCGCA
DNA 2: TGCGCACTGACAAAAGCTTCGAACTTGAATTCACACCGGAAACTATACTATATCTGTACGCAACAATGTTCAAACTCAAGAAATCACTTG
B5: Prv1044 -61 to -131 WT (TRB1102) (dsDNA)
DNA 1: GTATCTGCGACAAGGGCAGCGTCGATGCCTCGACATGCAGAGTCGGTGTTCGCTTCACGCGAACTAGGCGCAAGCTTTTGTCAGTGCGCA
DNA 2: TGCGCACTGACAAAAGCTTGCGCCTAGTTCGCGTGAAGCGAACACCGACTCTGCATGTCGAGGCATCGACGCTGCCCTTGTCGCAGATAC

Tests used:
Rv2827c [1] = target: T1, Rv2827c (Mycobacterium tuberculosis (H37Rv), UniProt P71625 1-295); test: EMSA; weakly negative co-operativity; conditions: protein: recombinant; tags: His6-SUMO removed by SENP; untagged; label: 5' 6-FAM on strand 2; blunt
T1 sequence: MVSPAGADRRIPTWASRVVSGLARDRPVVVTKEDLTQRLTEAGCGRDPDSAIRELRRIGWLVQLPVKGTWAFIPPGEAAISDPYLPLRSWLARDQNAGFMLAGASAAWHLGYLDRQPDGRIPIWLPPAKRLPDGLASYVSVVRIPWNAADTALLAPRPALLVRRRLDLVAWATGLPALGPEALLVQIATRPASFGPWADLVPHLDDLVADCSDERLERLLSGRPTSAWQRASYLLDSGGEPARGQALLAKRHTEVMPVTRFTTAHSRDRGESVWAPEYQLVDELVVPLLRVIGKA

Rv1044 = target: T2, Rv1044 (Mycobacterium tuberculosis (H37Rv), UniProt P96357 1-207); test: EMSA; conditions: protein: recombinant; tags: His6-SUMO removed by SENP; untagged; chain copies: 2; label: 5' 6-FAM on strand 2; blunt
T2 sequence: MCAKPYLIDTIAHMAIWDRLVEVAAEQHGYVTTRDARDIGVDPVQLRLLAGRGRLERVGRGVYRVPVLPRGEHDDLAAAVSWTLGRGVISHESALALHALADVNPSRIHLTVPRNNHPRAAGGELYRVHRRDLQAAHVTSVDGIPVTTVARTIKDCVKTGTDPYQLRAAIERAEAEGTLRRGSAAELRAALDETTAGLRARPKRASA

Rv2827c [2] = target: T1, Rv2827c; test: EMSA; conditions: protein: recombinant; tags: His6-SUMO removed by SENP; untagged; label: 5' 6-FAM on strand 2; blunt
Rv2827c [3] = target: T1, Rv2827c; test: EMSA; two binding events; not co-operative; conditions: protein: recombinant; tags: His6-SUMO removed by SENP; untagged; label: 5' 6-FAM on strand 2; blunt

| Binder | binding result (Rv2827c [1]) | binding result (Rv1044) | binding result (Rv2827c [2]) | binding result (Rv2827c [3]) |
| --- | --- | --- | --- | --- |
| B1 | binds | no binding |  |  |
| B2 |  | no binding |  |  |
| B3 |  |  | no binding |  |
| B4 |  | no binding |  | binds |
| B5 |  | no binding |  |  |
